For three substances, Ca^2+ (100 μM)-evoked fusion of the immobile, clamped vesicles, with 500 nM DHG results are on record in paper doi:10.1101/2023.06.05.543781.

In one assay the target is VAMP2 (mouse) (UniProt P63044).
The target of the next assay is Syntaxin1 (rat) (UniProt P32851).
Assay [1] deals with Munc13-1 C1-C2B-MUN-C2C domain (rat) (UniProt Q62768).

Sequence of UniProt P63044 (P63044 whole entry): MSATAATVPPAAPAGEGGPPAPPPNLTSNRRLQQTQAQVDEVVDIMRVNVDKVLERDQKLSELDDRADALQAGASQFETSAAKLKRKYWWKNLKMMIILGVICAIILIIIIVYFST
Sequence of UniProt P32851 (P32851 whole entry, the tested form may be a part): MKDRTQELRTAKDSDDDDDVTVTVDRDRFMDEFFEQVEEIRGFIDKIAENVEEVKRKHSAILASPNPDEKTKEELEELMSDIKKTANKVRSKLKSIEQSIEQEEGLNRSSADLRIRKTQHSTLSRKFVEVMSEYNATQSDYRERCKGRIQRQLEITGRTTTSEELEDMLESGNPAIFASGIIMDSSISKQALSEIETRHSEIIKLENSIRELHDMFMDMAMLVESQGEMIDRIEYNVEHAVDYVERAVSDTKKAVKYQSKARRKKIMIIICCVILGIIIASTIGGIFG

“Munc13-1 C1-C2B-MUN-C2C domain D1358K (from UniProt Q62768 529-1407; Q62768 1453-1735) (domain or fragment)” returned a Ca^2+ (100 μM)-evoked fusion of the immobile, clamped vesicles, with 500 nM DHG with VAMP2 (mouse) of 20%. In the assay with Syntaxin1 (rat), “Munc13-1 C1-C2B-MUN-C2C domain N1128A/F1131A (from UniProt Q62768 529-1407; Q62768 1453-1735) (domain or fragment)” gave a Ca^2+ (100 μM)-evoked fusion of the immobile, clamped vesicles, with 500 nM DHG of 20%.

In turn, “SNAP25 linker mutant with residues 113-138 replaced by a GGGGS repeat sequence (from UniProt P60879 1-112; P60879 139-206) (natural protein)” returned a Ca^2+ (100 μM)-evoked fusion of the immobile, clamped vesicles, with 500 nM DHG in assay [1] of 20%.
